Data on one molecule can be found in article PMC4108505 (Journal of molecular biology, 2014).

What is called Kd is the constant that tells how readily two partners part at equilibrium. Higher therefore signals a looser complex.

Numbering of substitutions follows the chain as printed. Names and notes keep the numbering of the source.

Holding throughout (assay): fluorescence polarisation
(Fluorescence polarisation rises when a labelled molecule tumbles more slowly, as on binding a larger partner.)

The target in one assay is T1, SipD^t S148E (Salmonella, UniProt Q56026 101-343, S148E).
T1 sequence: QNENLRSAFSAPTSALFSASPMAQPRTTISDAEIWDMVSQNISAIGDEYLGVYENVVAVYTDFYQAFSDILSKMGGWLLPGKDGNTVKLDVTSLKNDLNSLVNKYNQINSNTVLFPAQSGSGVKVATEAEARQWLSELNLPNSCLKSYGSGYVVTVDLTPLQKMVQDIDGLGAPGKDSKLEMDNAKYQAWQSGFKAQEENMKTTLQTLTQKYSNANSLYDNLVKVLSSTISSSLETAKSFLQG

The next assay concerns the target T2, SipD^t V157K (Salmonella, UniProt Q56026 101-343, V157K).
T2 sequence: T1 sequence with E48S, V57K

In the next assay the target is T3, SipD^t V323K (Salmonella, UniProt Q56026 101-343, V323K).
T3 sequence: T1 sequence with E48S, V223K

Assay [1] has as its target T4, SipD^t (truncated form of SipD lacking the N-terminal alpha-helical hairpin, residues 101-343) (Salmonella, UniProt Q56026 101-343).
T4 sequence: T1 sequence with E48S

The target of another assay is T5, SipD^t S313E (Salmonella, UniProt Q56026 101-343, S313E).
T5 sequence: T1 sequence with E48S, S213E

A further assay has as its target T6, SipD^t D320R (Salmonella, UniProt Q56026 101-343, D320R).
T6 sequence: T1 sequence with E48S, D220R

B1: PrgI V65A/V67A/L31C labelled with Alexa Fluor 488-C5-maleimide (natural protein)
chain: MATPWSGYLDDVSAKFDTGVDNLQTQVTEACDKLAAKPSDPALLAAYQSKLSEYNLYRNAQSNTAKAFKDIDAAIIQNFR
modifications: Alexa Fluor 488-C5-maleimide on the cysteine of L31C
In the case of B1, the values for the Kd (in the assay with SipD^t S148E; in assay [1]) were 189 ± 20 µM and 108 ± 10 µM, respectively. In addition, the binding result with SipD^t V157K, with SipD^t V323K, with SipD^t S313E and with SipD^t D320R was “binds” each time.
